From patent US20240018502A1
Where a chain is given by its changes, count along the chain named. Numbers in names are those of the source. Values belong to the binder of their own block, whether it stands above or below them.

Target: plasma purified human complement protein C3 (human) (UniProt P01024)
Assay: cell-based or functional assay

Chain of plasma purified human complement protein C3 (human) (P01024 23-667, chain 1 of 2): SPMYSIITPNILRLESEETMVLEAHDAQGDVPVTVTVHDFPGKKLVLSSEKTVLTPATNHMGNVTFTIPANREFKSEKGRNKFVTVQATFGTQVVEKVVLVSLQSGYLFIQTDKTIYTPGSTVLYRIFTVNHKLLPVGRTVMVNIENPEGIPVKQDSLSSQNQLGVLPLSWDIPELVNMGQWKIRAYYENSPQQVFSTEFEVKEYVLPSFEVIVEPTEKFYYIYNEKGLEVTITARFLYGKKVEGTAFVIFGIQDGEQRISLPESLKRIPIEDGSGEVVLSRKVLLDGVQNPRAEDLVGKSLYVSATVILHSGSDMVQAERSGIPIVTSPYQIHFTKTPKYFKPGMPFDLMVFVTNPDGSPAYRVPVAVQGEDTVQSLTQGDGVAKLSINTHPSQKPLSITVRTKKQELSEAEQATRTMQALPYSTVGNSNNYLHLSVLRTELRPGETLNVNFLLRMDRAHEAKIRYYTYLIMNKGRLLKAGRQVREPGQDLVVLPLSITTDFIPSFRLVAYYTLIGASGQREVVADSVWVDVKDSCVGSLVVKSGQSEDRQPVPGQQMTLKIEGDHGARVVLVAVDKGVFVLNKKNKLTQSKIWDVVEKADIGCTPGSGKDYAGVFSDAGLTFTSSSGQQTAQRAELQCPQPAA
Chain of plasma purified human complement protein C3 (human) (P01024 672-1663, chain 2 of 2): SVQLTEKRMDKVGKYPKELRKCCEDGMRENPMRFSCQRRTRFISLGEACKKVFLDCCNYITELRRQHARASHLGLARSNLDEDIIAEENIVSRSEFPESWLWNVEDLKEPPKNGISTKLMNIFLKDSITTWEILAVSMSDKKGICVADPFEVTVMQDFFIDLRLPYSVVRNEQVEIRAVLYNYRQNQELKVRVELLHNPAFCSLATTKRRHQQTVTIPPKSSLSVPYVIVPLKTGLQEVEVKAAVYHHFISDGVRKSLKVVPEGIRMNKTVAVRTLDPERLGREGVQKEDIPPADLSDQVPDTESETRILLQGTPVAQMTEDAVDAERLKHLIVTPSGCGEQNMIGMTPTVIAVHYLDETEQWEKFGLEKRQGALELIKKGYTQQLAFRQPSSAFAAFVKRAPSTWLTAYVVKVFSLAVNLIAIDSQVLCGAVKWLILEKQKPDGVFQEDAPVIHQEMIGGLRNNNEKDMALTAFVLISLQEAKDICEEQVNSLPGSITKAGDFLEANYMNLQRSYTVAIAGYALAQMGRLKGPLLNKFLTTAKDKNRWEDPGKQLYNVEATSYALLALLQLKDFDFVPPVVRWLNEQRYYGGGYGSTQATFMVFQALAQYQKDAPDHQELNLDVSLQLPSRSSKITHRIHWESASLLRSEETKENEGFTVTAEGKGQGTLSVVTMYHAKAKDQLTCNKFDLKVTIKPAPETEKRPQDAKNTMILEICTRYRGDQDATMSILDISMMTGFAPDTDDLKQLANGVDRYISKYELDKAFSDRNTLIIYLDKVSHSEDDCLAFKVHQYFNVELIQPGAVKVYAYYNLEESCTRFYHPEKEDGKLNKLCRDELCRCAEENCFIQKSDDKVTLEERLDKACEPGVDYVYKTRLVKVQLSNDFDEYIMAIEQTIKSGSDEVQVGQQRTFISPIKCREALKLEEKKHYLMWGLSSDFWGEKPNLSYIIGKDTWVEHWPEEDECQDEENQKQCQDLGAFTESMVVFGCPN

EC50 hC3 cleavage: 20.6 nM
B1: MTSP-1 protease domain Q38H/I41S/D60bT/F60eK/Y60gF/D96M/F97N/T98G/F99L/C122S/G151N/Q175L/Q192D (enzyme)
chain: VVGGTDADEGEWPWQVSLHALGHGHSCGASLISPNWLVSAAHCYIDTRGKRFSDPTQWTAFLGLHDQSQRSAPGVQERRLKRIISHPFFNMNGLDYDIALLELEKPAEYSSMVRPISLPDASHVFPAGKAIWVTGWGHTQYGGTNALILQKGEIRVINQTTCENLLPQLITPRMMCVGFLSGGVDSCDGDSGGPLSSVEADGRIFQAGVVSWGDGCAQRNKPGVYTRLPLFRDWIKENTGV

EC50 hC3 cleavage: 5.25 nM
B2: MTSP-1 protease domain Q38Y/I41S/D60bV/F60eR/Y60gF/D96M/F97N/T98G/F99L/C122S/G151N/Q175L/Q192D (enzyme)
chain: B1 chain with H23Y, T47V, K50R

EC50 of hC3 cleavage: 2.87 nM
B3: MTSP-1 Q38H/I41A/D60bV/F60eR/Y60gW/D96I/F97N/T98G/F99L/C122S/G151N/Q175L/Q192D (enzyme)
chain: B1 chain with S26A, T47V, K50R, F52W, M91I

EC50 hC3 cleavage: 5.28 nM
B4: MTSP-1 protease domain Q38H/I41A/D60bV/F60eR/Y60gW/D96W/F97D/ins97aD/T98G/F99L/C122S/G151N/Q175L/Q192G (enzyme)
chain: VVGGTDADEGEWPWQVSLHALGHGHACGASLISPNWLVSAAHCYIDVRGRRWSDPTQWTAFLGLHDQSQRSAPGVQERRLKRIISHPFFNWDDGLDYDIALLELEKPAEYSSMVRPISLPDASHVFPAGKAIWVTGWGHTQYGGTNALILQKGEIRVINQTTCENLLPQLITPRMMCVGFLSGGVDSCGGDSGGPLSSVEADGRIFQAGVVSWGDGCAQRNKPGVYTRLPLFRDWIKENTGV

EC50 hC3 cleavage: 4.9 nM
B5: MTSP-1 protease domain Q38H/I41A/D60bV/F60eR/Y60gW/D96W/F97D/ins97aT/T98G/F99L/C122S/G151N/Q175L/Q192G (enzyme)
chain: B4 chain with D93T

EC50 hC3 cleavage: 24.5 nM
B6: MTSP-1 protease domain Q38H/I41A/D60bT/F60eK/Y60gF/F97T/ins97aE/T98G/F99L/C122S/H143R/G151N/Q175L/Q192V (enzyme)
chain: B4 chain with V47T, R50K, W52F, W91D, D92T, D93E, H139R, G189V

EC50 hC3 cleavage: 4.53 nM
B7: MTSP-1 protease domain Q38H/I41S/D60bT/F60eS/Y60gW/D96Y/F97N/ins97aE/T98S/F99L/C122S/G151H/Q175L/Q192D (enzyme)
chain: B4 chain with A26S, V47T, R50S, W91Y, D92N, D93E, G94S, N146H, G189D

EC50 hC3 cleavage: 3.14 nM
B8: MTSP-1 protease domain Q38H/I41A/D60bV/F60eR/Y60gW/D96F/F97S/ins97aH/T98G/F99L/C122S/G151N/Q175L/Q192G (enzyme)
chain: B4 chain with W91F, D92S, D93H

EC50 hC3 cleavage: 5.71 nM
B9: MTSP-1 protease domain Q38H/I41S/D60bT/F60eS/Y60gW/D96Y/F97R/ins97aD/T98G/F99L/C122S/G151H/Q175L/Q192D (enzyme)
chain: B4 chain with A26S, V47T, R50S, W91Y, D92R, N146H, G189D

EC50 hC3 cleavage: 5.17 nM
B10: MTSP-1 protease domain Q38H/I41S/D60bT/F60eS/Y60gW/D96F/F97S/ins97aD/T98G/F99L/C122S/G151H/Q175L/Q192D (enzyme)
chain: B4 chain with A26S, V47T, R50S, W91F, D92S, N146H, G189D

EC50 hC3 cleavage: 3.13 nM
B11: MTSP-1 protease domain Q38H/I41S/D60bT/F60eS/Y60gW/D96F/F97Y/ins97aD/T98G/F99L/C122S/G151H/Q175L/Q192D (enzyme)
chain: B4 chain with A26S, V47T, R50S, W91F, D92Y, N146H, G189D

EC50 hC3 cleavage: 3.76 nM
B12: MTSP-1 protease domain Q38H/I41A/D60bV/F60eR/Y60gW/D96F/F97Y/ins97aN/T98G/F99M/C122S/G151N/Q175L/Q192G (enzyme)
chain: B4 chain with W91F, D92Y, D93N, L95M

EC50 hC3 cleavage: 7.16 nM
B13: MTSP-1 protease domain Q38H/I41A/D60bV/F60eR/Y60gW/D96F/F97Y/ins97aE/T98G/F99M/C122S/G151N/Q175L/Q192R (enzyme)
chain: B4 chain with W91F, D92Y, D93E, L95M, G189R
